Measurements taken from patent US20030199671A1 (published 2003).
fluorescein = fluorescein label attached at the ε-amino group of the C-terminal lysine

B1: DX252 (peptide)
peptide: Ac-GDDDHCYWFREWFNSECPHGEPGPEGGGK-NH2
modifications: not fully specified (bridges); printed as Ac-GDDDHCYWFREWFNSECPHGEPGPEGGGK-NH2; cysteine pairing not given here; also: fluorescein-labelled form in anisotropy assays, place not given here
notes: Fluorescein-labelled in anisotropy assays; immobilised in batch/column assays
B2: DX300 (peptide)
peptide: Ac-AGKYWCSFWGLQCKTGTPGPEGGGK(fluorescein)-NH2
modifications: not fully specified (bridges); printed as Ac-AGKYWCSFWGLQCKTGTPGPEGGGK-NH2; cysteine pairing not given here
notes: also called fluoresceinated DX250
B3: DX301 (peptide)
peptide: Ac-GDRRACSRDWSGALVWCAGHEPGPEGGGK(fluorescein)-NH2
modifications: not fully specified (bridges); printed as Ac-GDRRACSRDWSGALVWCAGHEPGPEGGGK-NH2; cysteine pairing not given here
notes: also called fluoresceinated DX253
B4: DX254 (peptide)
peptide: Ac-AGYYWCNYWGLCPDQGTPGPEGGGK-NH2
modifications: not fully specified (bridges); printed as Ac-AGYYWCNYWGLCPDQGTPGPEGGGK-NH2; cysteine pairing not given here; also: fluorescein-labelled form in anisotropy assays, place not given here
notes: Fluorescein-labelled in anisotropy assays; immobilised in batch assays

Legend:
[1] = target: T1, human IgG1 (human, UniProt P01857-1 1-330 = IgG part); experiment: batch binding, immobilised ligand
T1 construct: Calbiochem; human plasma IgG1 in anisotropy studies, myeloma-derived (cat. 400120) in batch/column studies; also called hIgG1
T1 sequence (P01857 other isoform, or with tags, fused parts or gaps): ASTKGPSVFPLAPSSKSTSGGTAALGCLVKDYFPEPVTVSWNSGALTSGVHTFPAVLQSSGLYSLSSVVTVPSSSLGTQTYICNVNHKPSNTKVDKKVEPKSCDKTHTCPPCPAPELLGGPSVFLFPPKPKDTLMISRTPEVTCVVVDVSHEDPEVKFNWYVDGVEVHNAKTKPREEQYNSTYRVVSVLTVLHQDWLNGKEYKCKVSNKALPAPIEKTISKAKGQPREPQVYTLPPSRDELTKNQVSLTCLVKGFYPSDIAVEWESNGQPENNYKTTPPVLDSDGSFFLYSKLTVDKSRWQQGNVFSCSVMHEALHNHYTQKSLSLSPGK
Experimental: (§1) IgG targets were diluted into 10 mM phosphate buffer containing 150 mM NaCl and 0.01% Tween 20, pH 7.2 (PBST) or 50 mM Tris buffer containing, 150 mM NaCl and 0.01% Tween-20, pH 7.5 (TBST). Batch (static) binding and elution studies were conducted in a 96-well assay filterplate (Millipore MultiScreen-HV, with 0.45 μm Durapore membrane, product no. MAHVN4510). The target was allowed to incubate with the resin for 1-1.5 hours with shaking at room temperature. Unbound target was collected by centrifugation of samples from the assay plate directly into a low-UV absorbing 96-well collection plate (Costar, product no. 3635 or Greiner, product no. 655801). The unbound target was then quantitated by reading the absorbance at 280 nm (normalized to 1 cm pathlength, 1.4 mg/ml A280 extinction coefficient) of the collection plate on a microplate spectrophotometer (Molecular Devices Corp., SPECTRAmax PLUS) against a buffer blank.
(§2) The percentage bound target was determined by subtracting the mass determined as unbound from the corresponding condition's control values (control non-filtered added directly to the collection plate and/or the negative control). The assay plate was washed (3×) with 200 μl of binding buffer by vacuum filtration followed by addition of 100 μl of various elution conditions (e.g.: 0.1 M sodium bicarbonate buffer, pH 8.5 and/or 0.1 M sodium citrate buffer, pH 4.0). After a 30-60 minute incubation with shaking at room temperature, the eluted target was collected by centrifugation of the assay plate into another collection plate and quantitated in a similar manner. Percent elution of total load was then determined to characterize elution recovery efficiency under various conditions.

[2] = target: T2, human IgG2 (human, UniProt P01859-1 1-326 = IgG part); experiment: batch binding, immobilised ligand
T2 construct: Calbiochem; plasma IgG2 in anisotropy studies, myeloma-derived (cat. 400122) in batch/column studies; also called hIgG2
T2 sequence (P01859 other isoform, or with tags, fused parts or gaps): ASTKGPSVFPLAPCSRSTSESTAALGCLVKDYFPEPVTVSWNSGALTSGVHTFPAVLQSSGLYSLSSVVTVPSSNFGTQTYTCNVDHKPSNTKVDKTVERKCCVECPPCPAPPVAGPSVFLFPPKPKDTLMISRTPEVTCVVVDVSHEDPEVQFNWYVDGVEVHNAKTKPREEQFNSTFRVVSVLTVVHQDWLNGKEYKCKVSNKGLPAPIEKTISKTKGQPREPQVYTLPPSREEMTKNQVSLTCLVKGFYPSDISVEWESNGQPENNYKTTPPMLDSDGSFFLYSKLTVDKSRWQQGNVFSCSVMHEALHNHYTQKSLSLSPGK
Experimental: as §1, §2

[3] = target: T3, human IgG3 (human, UniProt P01860-1 1-377); experiment: batch binding, immobilised ligand
T3 construct: Calbiochem; plasma IgG3 in anisotropy studies, myeloma-derived (cat. 400124) in batch/column studies; also called hIgG3
T3 sequence (P01860 other isoform, or with tags, fused parts or gaps): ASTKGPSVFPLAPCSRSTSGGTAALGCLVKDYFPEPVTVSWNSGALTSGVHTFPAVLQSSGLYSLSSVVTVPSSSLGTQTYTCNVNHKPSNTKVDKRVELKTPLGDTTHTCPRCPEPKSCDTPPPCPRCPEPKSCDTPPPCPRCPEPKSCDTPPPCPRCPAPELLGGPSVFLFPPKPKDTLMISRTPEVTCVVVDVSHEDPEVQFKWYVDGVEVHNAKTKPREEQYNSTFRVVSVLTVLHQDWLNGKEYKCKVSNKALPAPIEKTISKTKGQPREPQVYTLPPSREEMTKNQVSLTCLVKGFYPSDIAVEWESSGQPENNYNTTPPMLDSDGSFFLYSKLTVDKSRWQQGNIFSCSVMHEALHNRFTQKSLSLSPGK
Experimental: as §1, §2

[4] = target: T4, human IgG4 (human, UniProt P01861-1 1-327 = IgG part); experiment: batch binding, immobilised ligand
T4 construct: Calbiochem; plasma IgG4 in anisotropy studies, myeloma-derived (cat. 400126) in batch/column studies; also called hIgG4
T4 sequence (P01861 other isoform, or with tags, fused parts or gaps): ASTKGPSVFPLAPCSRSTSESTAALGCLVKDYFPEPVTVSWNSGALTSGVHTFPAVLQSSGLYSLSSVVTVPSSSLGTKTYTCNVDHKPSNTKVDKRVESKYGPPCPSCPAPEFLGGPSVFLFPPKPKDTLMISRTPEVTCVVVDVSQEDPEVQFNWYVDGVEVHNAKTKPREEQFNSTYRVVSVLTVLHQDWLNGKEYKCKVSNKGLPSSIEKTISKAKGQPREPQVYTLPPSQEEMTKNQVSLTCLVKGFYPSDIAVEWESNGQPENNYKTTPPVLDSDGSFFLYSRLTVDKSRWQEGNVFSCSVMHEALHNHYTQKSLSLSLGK
Experimental: as §1, §2

[5] = target: T1, human IgG1; experiment: fluorescence anisotropy; pH 7.4 PBS
Experimental: (§3) All measurements were performed in 384 well microplates with 20 nM fluorescein-labeled peptide and various concentrations of the IgG isoform in a volume of between 10 and 20 μl using a Tecan Polarion fluorescence polarization plate reader. All binding buffers included 0.01% (v/v) Tween 20 to prevent peptide adsorption to the microplate. The binding mixture was equilibrated for 10 minutes in the microplate at 30° C. prior to performing the measurement.

[6] = target: T2, human IgG2; experiment: fluorescence anisotropy; pH 7.4 PBS
Experimental: as §3

[7] = target: T3, human IgG3; experiment: fluorescence anisotropy; pH 7.4 PBS
Experimental: as §3

[8] = target: T1, human IgG1; experiment: fluorescence anisotropy; pH 7.4, 0.01 M Tris-HCl
Experimental: as §3

[9] = target: T2, human IgG2; experiment: fluorescence anisotropy; pH 7.4, 0.01 M Tris-HCl
Experimental: as §3

[10] = target: T3, human IgG3; experiment: fluorescence anisotropy; pH 7.4, 0.01 M Tris-HCl
Experimental: as §3

[11] = target: T4, human IgG4; experiment: fluorescence anisotropy; pH 7.4, 0.01 M Tris-HCl
Experimental: as §3

[12] = target: T1, human IgG1; experiment: fluorescence anisotropy; pH 5.7, 0.01 M Tris-acetate
Experimental: as §3

[13] = target: T3, human IgG3; experiment: as above
Experimental: as §3

[14] = target: T5, Human IgG Fc fragment isolated from plasma (human); experiment: fluorescence anisotropy; pH 8.0, 0.05 M Tris-HCl, 0.2 M NaCl
T5 construct: domain: Fc fragment; also called human Fc; Fc protein
Experimental: as §3

[15] = target: T1, human IgG1; experiment: fluorescence anisotropy; pH 7.4 PBS (second value, unlabelled row)
Experimental: as §3

[16] = target: T2, human IgG2; experiment: as above
Experimental: as §3

[17] = target: T3, human IgG3; experiment: fluorescence anisotropy; PBS
Experimental: (§4) Peptides were synthesized, fluorescein-labeled and HPLC purified as described above. Binding studies were performed using either a mixture of human plasma IgG isoforms (the Fc protein) or the individual human plasma IgG isoforms: IgG1, IgG2, IgG3, or IgG4.
(§5) Measurements were performed in 384-well microplates with 2 nM fluorescein-labeled peptide and a varied concentration of the IgG isoform target in a volume of 10 μl using a Tecan Polarion fluorescence polarization plate reader. The Fc binding buffer was 50 mM Tris-HCl, 200 mM NaCl, pH 8.0, 0.01% Tween 20. The IgG binding buffer was PBS with 0.01% Tween 20. The binding mixtures were equilibrated for 10 minutes in the microplate at 30° C. prior to performing the measurements.

[18] = target: T1, human IgG1; experiment: fluorescence anisotropy; PBS
Experimental: as §4, §5

[19] = target: T2, human IgG2; experiment: fluorescence anisotropy; PBS
Experimental: as §4, §5

[20] = target: T4, human IgG4; experiment: fluorescence anisotropy; PBS
Experimental: as §4, §5

[21] = target: T5, Human IgG Fc fragment isolated from …; experiment: fluorescence anisotropy; 50 mM Tris-HCl, 200 mM NaCl, pH 8.0
Experimental: as §4, §5

[22] = target: T1, human IgG1; experiment: fluorescence anisotropy; pH 9.3, 0.2 M NaCl
Experimental: as §3

[23] = target: T1, human IgG1; experiment: fluorescence anisotropy; pH 9.3, 0.01 M sodium bicarbonate
[24] = target: T2, human IgG2; experiment: as above

| Binder | Kd [5] | Kd [6] | Kd [7] | Kd [9] | Kd [11] | Kd [12] | Kd [13] | Kd [14] | Kd [15] | further results |
| --- | --- | --- | --- | --- | --- | --- | --- | --- | --- | --- |
| B1 | 1.9 µM | 3.6 µM | 2.7 µM | 3.4 µM | 3.2 µM | 0.1 µM | 0.06 µM | 5.1 µM | 2.9 µM | bdg % (of Total Load) [1]: 37%; bdg % (of Total Load) [2]: 37%; bdg % (of Total Load) [3]: 44%; bdg % (of Total Load) [4]: 14%; Kd [8]: 2.1 µM; Kd [10]: 2.3 µM; Kd [16]: 3 µM |
| B2 | – | – | – | – | – | – | – | – | – | Kd [17]: 4.1 µM |
| B3 | – | – | – | – | – | – | – | – | – | Kd [18]: 3.6 µM; Kd [19]: 2.3 µM; Kd [20]: 9.7 µM; Kd [21]: 6.8 µM |
| B4 | 0.14 µM | 1.1 µM | 3 µM | 2 µM | 2.9 µM | 0.09 µM | 0.3 µM | 1.6 µM | 0.4 µM | Kd [22]: 0.6 µM; Kd [23]: 0.4 µM; Kd [24]: 2 µM |
